Substitutions are numbered along the chain they refer to.
B1: UGT76G1var15: UGT76G1 variant, mutations F41L_L246F_Q425E (protein, UniProt Q6VAB4 1-458, looked up, variant F41L L246F Q425E)
UDP-glycosyltransferase 76G1: MENKTETTVRRRRRIILFPVPFQGHINPILQLANVLYSKGLSITIFHTNFNKPKTSNYPHFTFRFILDNDPQDERISNLPTHGPLAGMRIPIINEHGADELRRELELLMLASEEDEEVSCLITDALWYFAQSVADSLNLRRLVLMTSSLFNFHAHVSLPQFDELGYLDPDDKTRLEEQASGFPMLKVKDIKSAYSNWQILKEILGKMIKQTKASSGVIWNSFKELEESELETVIREIPAPSFLIPFPKHLTASSSSLLDHDRTVFQWLDQQPPSSVLYVSFGSTSEVDEKDFLEIARGLVDSKQSFLWVVRPGFVKGSTWVEPLPDGFLGERGRIVKWVPQQEVLAHGAIGAFWTHSGWNSTLESVCEGVPMIFSDFGLDQPLNARYMSDVLKVGVYLENGWERGEIANAIRRVMVDEEGEYIRENARVLKQKADVSLMKGGSSYESLESLVSYISSL
B2: UGT76G1var31: UGT76G1 variant, mutations E224D_L243P_V300A (protein, UniProt Q6VAB4 1-458, looked up, variant E224D L243P V300A)
UDP-glycosyltransferase 76G1: B1 UDP-glycosyltransferase 76G1 with L41F, E224D, L243P, F246L, V300A, E425Q
B3: UGT76G1var25: UGT76G1 variant, mutations T284L_Q342K_Y397Q (protein, UniProt Q6VAB4 1-458, looked up, variant T284L Q342K Y397Q)
UDP-glycosyltransferase 76G1: B1 UDP-glycosyltransferase 76G1 with L41F, F246L, T284L, Q342K, Y397Q, E425Q
B4: UGT76G1var36: UGT76G1 variant, mutations F265L_L379A_V396F (protein, UniProt Q6VAB4 1-458, looked up, variant F265L L379A V396F)
UDP-glycosyltransferase 76G1: B1 UDP-glycosyltransferase 76G1 with L41F, F246L, F265L, L379A, V396F, E425Q
B5: UGT76G1var22: UGT76G1 variant, mutations E231A_V310I_R334K (protein, UniProt Q6VAB4 1-458, looked up, variant E231A V310I R334K)
UDP-glycosyltransferase 76G1: B1 UDP-glycosyltransferase 76G1 with L41F, E231A, F246L, V310I, R334K, E425Q
B6: UGT76G1var29: UGT76G1 variant, mutations F22Y_V279I_N409R (protein, UniProt Q6VAB4 1-458, looked up, variant F22Y V279I N409R)
UDP-glycosyltransferase 76G1: B1 UDP-glycosyltransferase 76G1 with F22Y, L41F, F246L, V279I, N409R, E425Q
B7: UGT76G1var28: UGT76G1 variant, mutations L243A_S274G_P382M (protein, UniProt Q6VAB4 1-458, looked up, variant L243A S274G P382M)
UDP-glycosyltransferase 76G1: B1 UDP-glycosyltransferase 76G1 with L41F, L243A, F246L, S274G, P382M, E425Q
B8: UGT76G1var19: UGT76G1 variant, mutations E224D_E229A_Q432E (protein, UniProt Q6VAB4 1-458, looked up, variant E224D E229A Q432E)
UDP-glycosyltransferase 76G1: B1 UDP-glycosyltransferase 76G1 with L41F, E224D, E229A, F246L, E425Q, Q432E
B9: UGT76G1var1: UGT76G1 variant, mutations E224A_F314S_R334K (protein, UniProt Q6VAB4 1-458, looked up, variant E224A F314S R334K)
UDP-glycosyltransferase 76G1: B1 UDP-glycosyltransferase 76G1 with L41F, E224A, F246L, F314S, R334K, E425Q
B10: UGT76G1var30: UGT76G1 variant, mutations I43V_E224A_S241I (protein, UniProt Q6VAB4 1-458, looked up, variant I43V E224A S241I)
UDP-glycosyltransferase 76G1: B1 UDP-glycosyltransferase 76G1 with L41F, I43V, E224A, S241I, F246L, E425Q
B11: UGT76G1var34: UGT76G1 variant, mutations I43V_T284I_I295T (protein, UniProt Q6VAB4 1-458, looked up, variant I43V T284I I295T)
UDP-glycosyltransferase 76G1: B1 UDP-glycosyltransferase 76G1 with L41F, I43V, F246L, T284I, I295T, E425Q
B12: UGT76G1var38: UGT76G1 variant, mutations F41L_I295M_F377C (protein, UniProt Q6VAB4 1-458, looked up, variant F41L I295M F377C)
UDP-glycosyltransferase 76G1: B1 UDP-glycosyltransferase 76G1 with F246L, I295M, F377C, E425Q
B13: UGT76G1var27: UGT76G1 variant, mutations A239I_L379A_V394I (protein, UniProt Q6VAB4 1-458, looked up, variant A239I L379A V394I)
UDP-glycosyltransferase 76G1: B1 UDP-glycosyltransferase 76G1 with L41F, A239I, F246L, L379A, V394I, E425Q
B14: UGT76G1var18: UGT76G1 variant, mutations L243P_S274G_N409R (protein, UniProt Q6VAB4 1-458, looked up, variant L243P S274G N409R)
UDP-glycosyltransferase 76G1: B1 UDP-glycosyltransferase 76G1 with L41F, L243P, F246L, S274G, N409R, E425Q
B15: UGT76G1var16: UGT76G1 variant, mutations F265I_P272A_I335V (protein, UniProt Q6VAB4 1-458, looked up, variant F265I P272A I335V)
UDP-glycosyltransferase 76G1: B1 UDP-glycosyltransferase 76G1 with L41F, F246L, F265I, P272A, I335V, E425Q
B16: UGT76G1var21: UGT76G1 variant, mutations A239V_V300A_K303G (protein, UniProt Q6VAB4 1-458, looked up, variant A239V V300A K303G)
UDP-glycosyltransferase 76G1: B1 UDP-glycosyltransferase 76G1 with L41F, A239V, F246L, V300A, K303G, E425Q
B17: UGT76G1var32: UGT76G1 variant, mutations A239V_L243A_S375M (protein, UniProt Q6VAB4 1-458, looked up, variant A239V L243A S375M)
UDP-glycosyltransferase 76G1: B1 UDP-glycosyltransferase 76G1 with L41F, A239V, L243A, F246L, S375M, E425Q
B18: UGT76G1var17: UGT76G1 variant, mutations F265L_Q266E_Q342K (protein, UniProt Q6VAB4 1-458, looked up, variant F265L Q266E Q342K)
UDP-glycosyltransferase 76G1: B1 UDP-glycosyltransferase 76G1 with L41F, F246L, F265L, Q266E, Q342K, E425Q
B19: UGT76G1var35: UGT76G1 variant, mutations T284L_F314S_S357N (protein, UniProt Q6VAB4 1-458, looked up, variant T284L F314S S357N)
UDP-glycosyltransferase 76G1: B1 UDP-glycosyltransferase 76G1 with L41F, F246L, T284L, F314S, S357N, E425Q
B20: UGT76G1var26: UGT76G1 variant, mutations S241I_F265L_F377C (protein, UniProt Q6VAB4 1-458, looked up, variant S241I F265L F377C)
UDP-glycosyltransferase 76G1: B1 UDP-glycosyltransferase 76G1 with L41F, S241I, F246L, F265L, F377C, E425Q
B21: UGT76G1var33: UGT76G1 variant, mutations A33G_R334H_Y397Q (protein, UniProt Q6VAB4 1-458, looked up, variant A33G R334H Y397Q)
UDP-glycosyltransferase 76G1: B1 UDP-glycosyltransferase 76G1 with A33G, L41F, F246L, R334H, Y397Q, E425Q
B22: UGT76G1var20: UGT76G1 variant, mutations S375M_K393G_Y397E (protein, UniProt Q6VAB4 1-458, looked up, variant S375M K393G Y397E)
UDP-glycosyltransferase 76G1: B1 UDP-glycosyltransferase 76G1 with L41F, F246L, S375M, K393G, Y397E, E425Q
B23: UGT76G1var23: UGT76G1 variant, mutations T263S_G348P_A352G (protein, UniProt Q6VAB4 1-458, looked up, variant T263S G348P A352G)
UDP-glycosyltransferase 76G1: B1 UDP-glycosyltransferase 76G1 with L41F, F246L, T263S, G348P, A352G, E425Q
B24: UGT76G1var37: UGT76G1 variant, mutations E229A_L379G_I407V (protein, UniProt Q6VAB4 1-458, looked up, variant E229A L379G I407V)
UDP-glycosyltransferase 76G1: B1 UDP-glycosyltransferase 76G1 with L41F, E229A, F246L, L379G, I407V, E425Q
B25: UGT76G1var24: UGT76G1 variant, mutations A239I_P272A_Q425E (protein, UniProt Q6VAB4 1-458, looked up, variant A239I P272A Q425E)
UDP-glycosyltransferase 76G1: B1 UDP-glycosyltransferase 76G1 with L41F, A239I, F246L, P272A

Test: Directed evolution of UGT76G1, conversion of Rebaudioside D to Rebaudioside M (round 1)
Format: biochemical
Settings: 0.5 mM Rebaudioside D, 2.5 mM UDP-Glucose, 100 μL fresh lysate, 30° C., pH 7.2
Excerpt: Starting from the amino acid sequence of UGT76G1, as is described in Genbank (AAR06912.1), different mutations at various amino acid positions were identified that could alter the activity of the enzyme for the transformation of Rebaudioside D (Reb D) to Rebaudioside M (Reb M). This list of mutations, designed by DNA2.0 ProteinGPS™ strategy, was subsequently used to synthesize 96 variant genes that contained 3, 4 or 5 of these mutations that were codon-optimized for expression in E. coli. The genes were subcloned in the pET30a+ plasmid and used for transformation of E. coli BL21 (DE3) chemically competent cells. The obtained cells were grown in Petri-dishes on solid LB medium in the presence of Kanamycin. Suitable colonies were selected and allowed to grow in liquid LB medium in tubes. Glycerol was added to the suspension as cryoprotectant and 400 μL aliquots were stored at −20° C. and at −80° C.
These storage aliquots of E. coli BL21(DE3) containing the pET30a+_UGT76G1var plasmids were thawed and added to LBGKP medium (20 g/L Luria Broth Lennox; 50 mM PIPES buffer pH 7.00; 50 mM Phosphate buffer pH 7.00; 2.5 g/L glucose and 50 mg/L of Kanamycine). This culture was allowed to shake in a 96 microtiter plate at 135 rpm at 30° C. for 8 h.
3.95 mL of production medium containing 60 g/L of Overnight Express™ Instant TB medium (Novagen®), 10 g/L of glycerol and 50 mg/L of Kanamycin was inoculated with 50 μL of above described culture. In a 48 deepwell plate the resulting culture was allowed to stir at 20° C. The cultures gave significant growth and a good OD (600 nm; 1 cm) was obtained. After 44 h, the cells were harvested by centrifugation and frozen.
Lysis was performed by addition of Bugbuster® Master mix (Novagen®) to the thawed cells and the lysate was recovered by centrifugation. Activity tests were performed with 100 μL of fresh lysate that was added to a solution of Rebaudioside D (final concentration 0.5 mM), MgCl2 (final concentration 3 mM) and UDP-Glucose (final concentration 2.5 mM) in 50 mM phosphate buffer pH 7.2.
The reaction was allowed to run at 30° C. and samples were taken after 2, 4, 7 and 24 h. to determine conversion and initial rate by HPLC (CAD detection) using the analytical method that was described above for the transformation of Rebaudioside D to Rebaudioside M. The results are depicted in the following table.

| Molecule | Conversion Reb D to Reb M after 24 h (%) | initial rate (Reb M area/min) |
| --- | --- | --- |
| B1 | 5.6 | 1.5E+06 |
| B2 | 0.4 | 2.4E+05 |
| B3 | 0.9 | 6.3E+04 |
| B4 | 20.0 | 8.8E+06 |
| B5 | 34.4 | 2.4E+07 |
| B6 | 41.0 | 2.9E+07 |
| B7 | 6.1 | 2.4E+06 |
| B8 | 10.5 | 5.5E+06 |
| B9 | 51.8 | 5.5E+07 |
| B10 | 13.6 | 5.6E+06 |
| B11 | 3.4 | 1.5E+06 |
| B12 | 8.2 | 3.7E+06 |
| B13 | 29.0 | 1.5E+07 |
| B14 | 1.9 | 5.0E+05 |
| B15 | 18.6 | 5.8E+06 |
| B16 | 41.9 | 3.3E+07 |
| B17 | 0.0 | −4.4E+04 |
| B18 | 0.7 | 7.2E+05 |
| B19 | 0.5 | 1.8E+05 |
| B20 | 1.8 | 7.5E+05 |
| B21 | 1.0 | 7.5E+06 |
| B22 | 1.8 | 1.9E+06 |
| B23 | 47.8 | 4.1E+07 |
| B24 | 39.1 | 2.8E+07 |
| B25 | 31.0 | 2.1E+07 |

Reference: US20170275666A1, “Methods for Preparing Rebaudioside I and Uses” (The Coca-Cola Company, priority 2014, published 2017)
